Two molecules from publication PMC5003437, “Development and Optimization of a Thrombin Sandwich Aptamer Microarray” can be followed below.

Series [1] has as its target T1, human alpha-thrombin (Homo sapiens, UniProt P00734;P00734 328-363;364-622). Kind of series: sandwich aptamer microarray (fluorescence); thrombin captured on immobilized TBA1, Cy3-streptavidin detection; LOD 0.17 nM (not Kd); 20 mM Tris, 140 mM NaCl, 5 mM KCl, 1 mM MgCl2, pH 7.5, 25 C; 30 min pre-incubation with TBA2, then 2 h on array; PBS wash.
Series [2] addresses T1, human alpha-thrombin. Kind of series: sandwich aptamer microarray (fluorescence); thrombin captured on immobilized TBA1; LOD 0.75 nM (not Kd); 20 mM Tris, 140 mM NaCl, 5 mM KCl, 1 mM MgCl2, pH 7.5, 25 C; 30 min pre-incubation with TBA2, then 2 h on array; PBS wash.

On to AGTCCGTGGTAGGGCAGGTTGGGGTGACT (structured_DNA) [TBA2-biotin], for which, in the series with human alpha-thrombin [1], the binding result was “binds”.

For AGTCCGTGGTAGGGCAGGTTGGGGTGACT (structured_DNA) [TBA2-Cy5], in the series with human alpha-thrombin [2], the binding result is “binds”.
